{"source": "paper PMC12009342", "key": {"[1]": {"target": "HIV-1 Env antigen (BG505 SOSIP.664 gp140-his) (HIV-1 (BG505)) (UniProt Q2N0S6)", "test": "SEC-MALS; Fab/antigen mixtures; Fab and HIV Env trimer mixed 3:1, Fab and EGFR or Nkp30 mixed 1:1; Superdex 200 Increase 10/300 GL, PBS with 200 ppm sodium azide, 1 mL/min"}, "[2]": {"target": "HIV-1 Env antigen (BG505 SOSIP.664 gp140-his) (HIV-1 (BG505)) (UniProt Q2N0S6)", "test": "BLI; BLItz; His-tagged antigen captured on Anti-Penta-HIS (HIS1K) biosensor at 25 ng/µL for 300 s; Fab in solution at 4 concentrations; association 180 s, dissociation 300 s in PBS"}}}
{"substance": "NC-Cow1 Fab ulCDR-swap variant var1 (ulCDR of NC-Cow2)", "values": [{"measurement": "stoichiometry N", "setting": "[1]", "value": 1}, {"measurement": "Kd", "setting": "[2]", "value": 125, "unit": "nM"}]}
